Laboratory results taken from PMC3930596, “Insights into the Initiation of JC Virus DNA Replication Derived from the Crystal Structure of the T-Antigen Origin Binding Domain”.

Columns and labels:
[1] = target: JCV T-antigen origin-binding domain (OBD; residues 132-261) (JC virus); assay: crystal structure; crystal form 2, space group I4_(1), 2.6 Å; 0.1 M Tris pH 8.5, 0.2 M LiSO4, 30% PEG 4000, 4 C; contacts with symmetry mates
[2] = target: JCV T-antigen origin-binding domain (OBD; residues 132-261) (JC virus); assay: crystal structure; crystal form 1, space group C2, 1.64 Å, two molecules in the asymmetric unit; 0.1 M sodium citrate pH 5.6, 30% PEG 3350, 18 C; interfaces analysed with PISA
[3] = target: JCV T-antigen origin-binding domain (residues 132-261) with tartrate-modified Lys168 (crystal form 3) (JC virus); assay: crystal structure; crystal form 3, space group P4_(1), 1.32 Å, one molecule in the asymmetric unit; 0.19 M sodium tartrate, 19% PEG 3350, 4 C; contacts with symmetry mates
[4] = target: T1, JCV T-antigen origin-binding domain (OBD) (JC virus (JCV), UniProt P03072 132-261); assay: ITC; average of four titrations; titration shown in Fig. 4A ~278 nM; N = 4 OBDs per duplex; ITC (VP-ITC): 10 mM sodium phosphate pH 7.0, 50 mM NaCl; temperature not stated; OBD in syringe (~80 uM for Site II, 40 uM for Site I), DNA 1.5 uM / 1.0 uM; conditions: protein: recombinant; tags: N-terminal GST removed by thrombin; chain copies: 4; blunt
T1 sequence: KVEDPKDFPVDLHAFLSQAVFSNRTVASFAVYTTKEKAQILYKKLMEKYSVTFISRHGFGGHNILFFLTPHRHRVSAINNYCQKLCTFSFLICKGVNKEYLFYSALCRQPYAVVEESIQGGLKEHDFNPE

[5] = target: T1, JCV T-antigen origin-binding domain …; assay: ITC; ITC (VP-ITC): 10 mM sodium phosphate pH 7.0, 50 mM NaCl; temperature not stated; OBD in syringe (~80 uM for Site II, 40 uM for Site I), DNA 1.5 uM / 1.0 uM; conditions: protein: recombinant; tags: N-terminal GST removed by thrombin; chain copies: 4; blunt

**Q.** For “JCV T-antigen origin-binding domain (OBD; residues 132-261) (domain or fragment)”, which stoichiometry N [1] is on record?
**A.** Its stoichiometry N is 4.

**Q.** And the stoichiometry N [2]?
**A.** Its stoichiometry N is 4.

**Q.** How did the stoichiometry N [3] turn out when “JCV T-antigen origin-binding domain (residues 132-261) with tartrate-modified Lys168 (crystal form 3) (domain or fragment)” was run?
**A.** Its stoichiometry N is 4.

B1: JCV Site II 33 bp (dsDNA)
DNA 1: TACAGGAGGCCGAGGCCGCCTCCGCCTCCAAGC
DNA 2: GCTTGGAGGCGGAGGCGGCCTCGGCCTCCTGTA
**Q.** How did the Kd [4] turn out when B1 was run?
**A.** Its Kd is 299 nM.

B2: JCV Site I 28 bp (dsDNA)
DNA 1: GCGTGGAGGCTTTTTAGGAGGCCAGGGA
DNA 2: TCCCTGGCCTCCTAAAAAGCCTCCACGC
**Q.** For B2, which Kd [5] is on record?
**A.** Its Kd is 18.3 nM.
